Measured values from paper PMC9947658, “Escherichia coli CspA stimulates translation in the cold of its own mRNA by promoting ribosome progression”.

B1: initiation factor IF1 (natural protein)
chain: MAKEDNIEMQGTVLETLPNTMFRVELENGHVVTAHISGKMRKNYIRILTGDKVTVELTPYDLSKGRIVFRSR

How the values were obtained:
CspA [1] = biological target: T1, CspA (Escherichia coli, UniProt P0A9X9 1-70); experiment: tryptophan fluorescence quenching; 20°C; Trp fluorescence: 1 uM CspA, Buffer H, 20°C; EMSA: Buffer O, 15 or 37°C, 10% native PAGE at 4°C; Fe-EDTA footprinting: Buffer N, 15°C; UV cross-linking at 15°C; buffer compositions not given in the material; details: protein: recombinant; tags: His-tag (pETM11) removed with TEV; single strand
CspA [2] = biological target: T1, CspA; experiment: tryptophan fluorescence quenching; 20°C; text calls the G6A variant oligo 6, table and Fig S10 oligo 5; Trp fluorescence: 1 uM CspA, Buffer H, 20°C; EMSA: Buffer O, 15 or 37°C, 10% native PAGE at 4°C; Fe-EDTA footprinting: Buffer N, 15°C; UV cross-linking at 15°C; buffer compositions not given in the material; details: protein: recombinant; tags: His-tag (pETM11) removed with TEV; single strand
[3] = biological target: Escherichia coli 30S ribosomal subunits (E. coli); experiment: ITC; control experiment: IF1 and 30S subunits, at low temperature, under comparable conditions; ITC buffer

T1 sequence (P0A9X9 whole entry): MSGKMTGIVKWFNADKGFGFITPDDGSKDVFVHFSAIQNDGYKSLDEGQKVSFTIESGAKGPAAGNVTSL

Binder | Kd (CspA [1]) [µM] | further results
AACAGGUA (ssRNA) [Oligo 3] | 1.24 ± 0.05 | –
AACUGAUA (ssRNA) [Oligo 5] | – | Kd (CspA [2]): 4.86 ± 0.24 µM
AACUGGAA (ssRNA) [Oligo 6] | 2.08 ± 0.14 | –
AACUGGUA (ssRNA) [Oligo 1] | 1.24 ± 0.08 | –
B1 | – | Kd [3]: 0.806 µM
AACUAGUA (ssRNA) [Oligo 4] | 1.03 ± 0.06 | –
AAAAAAAAA (ssRNA) [Oligo 7 (poly-A)] | 5.13 ± 1.15 | –
AAAUGGUA (ssRNA) [Oligo 2] | 2.3 ± 0.13 | –
